Data on 1 molecule can be found in patent publication US20170158765A1 (Merck Sharp & Dohme, published 2017).

This experiment has as its target T1, human ILT5 on the surface of peripheral blood cells (PBMC subsets, APCs) (human, UniProt O75022 24-631).
T1 construct: whole, on cells; also called surface ILT5; Immunoglobulin-like transcript 5
The experiment can be described thus: flow cytometry, staining of human PBMCs. An excerpt: Peripheral blood mononuclear cells (PBMCs) from healthy human blood donors were stained with a murine monoclonal antibody (TRX585) comprising a heavy chain variable region comprising the amino acid sequence of SEQ ID NO: 2 or SEQ ID NO: 3, and a light chain variable region comprising the amino acid sequence of SEQ ID NO: 1. Sequencing analysis of the heavy chain variable region was inconclusive as to whether the first amino acid residue was D or E. As the two amino acids are very similar and the first residue is not in a CDR, it is highly likely that VH with D or E at the first position would have very similar if not the same ILT5-binding properties. PBMCs were also stained with antibodies specific for defined hematopoietic cell lineages and analyzed for ILT5 expression by flow cytometry.
For orientation: A flow cytometer gives signals particle by particle.

T1 sequence (O75022 24-631): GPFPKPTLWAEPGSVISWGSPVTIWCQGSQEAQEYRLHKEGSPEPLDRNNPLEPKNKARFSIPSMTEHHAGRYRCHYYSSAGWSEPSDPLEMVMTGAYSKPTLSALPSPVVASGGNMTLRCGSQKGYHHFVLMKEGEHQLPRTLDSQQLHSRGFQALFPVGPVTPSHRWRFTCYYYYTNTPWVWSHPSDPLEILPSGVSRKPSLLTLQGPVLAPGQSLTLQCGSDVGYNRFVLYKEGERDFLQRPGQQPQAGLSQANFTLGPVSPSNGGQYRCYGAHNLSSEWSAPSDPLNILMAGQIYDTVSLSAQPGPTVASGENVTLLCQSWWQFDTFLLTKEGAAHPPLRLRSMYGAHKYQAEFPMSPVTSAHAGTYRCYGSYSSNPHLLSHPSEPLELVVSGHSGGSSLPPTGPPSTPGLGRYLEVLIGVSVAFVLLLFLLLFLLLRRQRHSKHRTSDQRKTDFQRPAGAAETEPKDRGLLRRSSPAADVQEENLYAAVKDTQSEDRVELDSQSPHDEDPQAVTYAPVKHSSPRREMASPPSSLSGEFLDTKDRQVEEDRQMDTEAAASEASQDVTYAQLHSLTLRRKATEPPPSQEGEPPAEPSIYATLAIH

B1: TRX585 mouse anti-human ILT5 monoclonal antibody (8G6 mAb, IgG1, kappa) (antibody, V domains shown)
VH: DVQLQESGPGLVKPSQSLFLTCSVTGYSISSSYYWNWIRQFPGNKLEWMGYISFDGSNNYNPSLKNRISITRDTSKNQFFLKLNSVTTEDTATYYCAREKENYYGSSFYYFDYWGLGTSLTVSS
VL: DIQMTQSPASLSVSVGETVTITCRASENIYSNLAWYQQKQGKSPQVLVYAATNLADGVPSRFSGSGSGTQFSLKINSLQSEDFGNYFCQHFWRIPWTFGGGTKLEIK
notes: Murine IgG1, kappa purified from hybridoma supernatant; also called TRX585 antibody; TRX585 mAb
Turning to B1, the binding result is recorded as “binds”.
